Common to all, as to test: SPR
Background: Surface plasmon resonance follows binding to a sensor surface in real time, without labels.

Assay [1] concerns the target R14.
Assay [2] concerns the target S02.
Assay [3] concerns the target S10.
Assay [4] addresses R10.
Assay [5] deals with S08.
Assay [6] concerns the target S15.
For assay [7], the target named is R07.
The target of assay [8] is R17.
For assay [9], the target named is R14. The source holds these as a separate data set.
For assay [10], the target named is S02. This is another data set of the same source.
Assay [11] has as its target S10. The source holds these as a separate data set.
Assay [12] concerns the target R10. This is another data set of the same source.
In assay [13] the target is S08. This is another data set of the same source.
Assay [14] addresses S15. This is another data set of the same source.
In assay [15] the target is R07. This is another data set of the same source.
In assay [16] the target is R17. This is another data set of the same source.

The results in this text go back to article PMC9636267 (2022).

What is called Kd is the equilibrium constant for the complex coming apart. The term koff denotes the first-order rate constant of dissociation. Higher therefore signals fast dissociation.

Where two headings read alike, the source gives them in different places.

B1: HCoV-229E RBD (294–435 aa) (domain or fragment)
chain: PVYHKHTFIVLYVDFKPQSGGGKCFNCYPAGVNITLANFNETKGPLCVDTSHFTTKYVAVYANVGRWSASINTGNCPFSFGKVNNFVKFGSVCFSLKDIPGGCAMPIVANWAYSKYYTIGSLYVSWSDGDGITGVPQPVEGV
Regarding B1, the Kd with R14 [1] came out at 0.8 nM; in the assay with S02 [2] it was 0.5 nM; with S10 [3] it was 0.5 nM; with R10 [4] it was 0.3 nM; in the assay with S08 [5], 3 nM; with S15 [6] it was 0.3 nM. The Kd came to 2 nM with R07 [7]; 0.9 nM with R17 [8]; 0.81 nM with R14 [9]; 0.49 nM with S02 [10]; 0.51 nM with S10 [11]; 0.32 nM in the assay with R10 [12]. Also, the Kd with S08 [13] worked out at 2.9 nM; with S15 [14], 0.26 nM; with R17 [16] it was 0.92 nM. The koff was found to be 0.003 s⁻¹ in the assay with R14 [9]; 0.0018 s⁻¹ with S02 [10]; 0.0031 s⁻¹ in the assay with S10 [11]; 0.0019 s⁻¹ with R10 [12]; 0.0053 s⁻¹ in the assay with S08 [13]; 0.00097 s⁻¹ with S15 [14]. For the same molecule, the koff in the assay with R07 [15] came to 0.0016 s⁻¹; in the assay with R17 [16], 0.0025 s⁻¹.
